From patent US20220064286A1 (Genentech, published 2022)

T1: human TIGIT protein (human, UniProt Q495A1 22-141, limits assumed)
T1 construct: Recombinant protein (Genentech) used in ELISA screening and as SPR analyte; also called TIGIT antigen
T1 sequence: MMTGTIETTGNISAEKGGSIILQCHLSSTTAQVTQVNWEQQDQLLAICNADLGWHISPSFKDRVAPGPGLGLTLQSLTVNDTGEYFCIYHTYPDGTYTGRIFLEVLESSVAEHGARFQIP


How the values were obtained:
human TIGIT protein = biological target: T1, human TIGIT protein; experiment: SPR, captured mAb
Experimental: (§1) Briefly, a series S CM5 biosensor chip was activated with N-ethyl-N′-(3-dimethylaminopropyl)-carbodiimide hydrochloride (EDC) and N-hydroxysuccinimide (NHS) reagents according to the supplier's (GE Healthcare Biosciences, Piscataway, N.J.) instructions, and a human antibody capture kit was applied to couple goat anti-human Fc IgGs in order to achieve approximately 10,000 response units (RU) on each flow cell, followed by blocking un-reacted groups with 1M ethanolamine.
(§2) (flow rate: 30 μl/min) with no regeneration between injections. The sensorgrams were recorded and evaluated by BIAcore™ T200 Evaluation Software (version 2.0) after subtraction of reference cell signal. Association rates (kₒₙ) and dissociation rates (koff) were calculated using a simple one-to-one Langmuir binding model. The equilibrium dissociation constant (KD) was calculated as the ratio koff/kₒₙ.
(§3) The first humanized versions, h6B2, L1H1, h10A5.L1H1, h7E7, L1H1, and h15C8.L1H1, which contain both rat CDRs and framework residues at Vernier positions, and the fully humanized versions, h6B2.L2H5, h10A5.L4H4, h7E7.L5H9, and h15C8.L5H9, which contain only rat CDRs were subject to BIAcore affinity measurement by comparison with original rat antibodies, rat6B2, rat10A5, rat7E7 and rat 15C8. For binding affinity determinations of TIGIT antibodies against human TIGIT, cynomolgus monkey TIGIT and human alanine-scanned TIGIT mutants by single-cycle kinetics, Surface Plasmon Resonance (SRP) measurement with a BIACORE™-T200 instrument was used, as described above.

[1] = biological target: cynomolgus monkey (cyno) TIGIT protein (cynomolgus monkey, UniProt A0A7N9I9V4 89-209); experiment: SPR, captured mAb
Experimental: as §1, §2, §3

cynomolgus monkey (cyno) TIGIT protein, sequence (A0A7N9I9V4 entry or part of it): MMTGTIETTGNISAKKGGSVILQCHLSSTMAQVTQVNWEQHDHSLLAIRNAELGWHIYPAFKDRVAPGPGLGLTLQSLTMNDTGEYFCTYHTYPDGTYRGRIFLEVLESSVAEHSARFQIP

Row | Binder | Kd (human TIGIT protein) | koff (human TIGIT protein) | kon (human TIGIT protein) | Kd [1] | koff [1] | kon [1]
1 | h15C8.L1H4 (antibody, V domains shown, VH: I48M against h15C8.L1H1; FR/HVR pieces) VH: EVQLVQSGAEVKKPGASVKVSCKASGYTFTEHSIYWLRQAPGQRLEIMGRIDPKNGRTYFVDKFKNRATLTTDTSASTAYMELSSLRSEDTAVYFCARIDGFYFDFWGQGTLVTVSS VL: DIQLTQSPSFLSASVGDRVTITCKGSQNVNKYLVWYQQKPGKAPKLLIYSTDNLQSGIPSRFSGSGSGTEYTLTISSLQPEDFATYFCYQYNNGFTFGQGTKVEIK | 590 pM | 0.000498 s⁻¹ | 841000 M⁻¹ s⁻¹ | 1050 pM | 0.000558 s⁻¹ | 532000 M⁻¹ s⁻¹
2 | h7E7.L1H8 (antibody, V domains shown, VH: T93A against h7E7.L1H1; FR/HVR pieces) VH: EVQLVQSGAEVKKPGASVKVSCKASGYTFTEYSIYWVRQAPGQRLEIIGRIDPKNGRTYYVDKFKNRATLTADTSASTAYMELSSLRSEDTAVYFCARIYGFYFDFWGQGTLVTVSS VL: DIQLTQSPSFLSASVGDRVTITCKGSQNVNKYLVWYQQKPGKAPKLLIYNTDNLQSGIPSRFSGSGSGTEYTLTISSLQPEDFATYFCYQYNNGFTFGQGTKVEIK | 360 pM | 0.00101 s⁻¹ | 2.78e+06 M⁻¹ s⁻¹ | 390 pM | 0.000331 s⁻¹ | 845000 M⁻¹ s⁻¹
3 | h15C8.L1H5 (antibody, V domains shown, VH: A67V against h15C8.L1H1; FR/HVR pieces) VH: EVQLVQSGAEVKKPGASVKVSCKASGYTFTEHSIYWLRQAPGQRLEIIGRIDPKNGRTYFVDKFKNRVTLTTDTSASTAYMELSSLRSEDTAVYFCARIDGFYFDFWGQGTLVTVSS VL: DIQLTQSPSFLSASVGDRVTITCKGSQNVNKYLVWYQQKPGKAPKLLIYSTDNLQSGIPSRFSGSGSGTEYTLTISSLQPEDFATYFCYQYNNGFTFGQGTKVEIK | 710 pM | 0.000567 s⁻¹ | 798000 M⁻¹ s⁻¹ | 1150 pM | 0.000558 s⁻¹ | 484000 M⁻¹ s⁻¹
4 | h7E7.L1H7 (antibody, V domains shown, VH: F91Y against h7E7.L1H1; FR/HVR pieces) VH: EVQLVQSGAEVKKPGASVKVSCKASGYTFTEYSIYWVRQAPGQRLEIIGRIDPKNGRTYYVDKFKNRATLTADTSASTAYMELSSLRSEDTAVYYCTRIYGFYFDFWGQGTLVTVSS VL: DIQLTQSPSFLSASVGDRVTITCKGSQNVNKYLVWYQQKPGKAPKLLIYNTDNLQSGIPSRFSGSGSGTEYTLTISSLQPEDFATYFCYQYNNGFTFGQGTKVEIK | 310 pM | 0.000849 s⁻¹ | 2.74e+06 M⁻¹ s⁻¹ | 430 pM | 0.000286 s⁻¹ | 664000 M⁻¹ s⁻¹
5 | h7E7.L1H6 (antibody, V domains shown, VH: A71R against h7E7.L1H1; FR/HVR pieces) VH: EVQLVQSGAEVKKPGASVKVSCKASGYTFTEYSIYWVRQAPGQRLEIIGRIDPKNGRTYYVDKFKNRATLTRDTSASTAYMELSSLRSEDTAVYFCTRIYGFYFDFWGQGTLVTVSS VL: DIQLTQSPSFLSASVGDRVTITCKGSQNVNKYLVWYQQKPGKAPKLLIYNTDNLQSGIPSRFSGSGSGTEYTLTISSLQPEDFATYFCYQYNNGFTFGQGTKVEIK | 350 pM | 0.000648 s⁻¹ | 1.85e+06 M⁻¹ s⁻¹ | 440 pM | 0.000284 s⁻¹ | 641000 M⁻¹ s⁻¹
6 | h15C8.L1H7 (antibody, V domains shown, VH: T71R against h15C8.L1H1; FR/HVR pieces) VH: EVQLVQSGAEVKKPGASVKVSCKASGYTFTEHSIYWLRQAPGQRLEIIGRIDPKNGRTYFVDKFKNRATLTRDTSASTAYMELSSLRSEDTAVYFCARIDGFYFDFWGQGTLVTVSS VL: DIQLTQSPSFLSASVGDRVTITCKGSQNVNKYLVWYQQKPGKAPKLLIYSTDNLQSGIPSRFSGSGSGTEYTLTISSLQPEDFATYFCYQYNNGFTFGQGTKVEIK | 980 pM | 0.000597 s⁻¹ | 610000 M⁻¹ s⁻¹ | 940 pM | 0.000206 s⁻¹ | 219000 M⁻¹ s⁻¹
7 | h7E7.L2H1 (antibody, V domains shown, VL: I58V against h7E7.L1H1; FR/HVR pieces) VH: EVQLVQSGAEVKKPGASVKVSCKASGYTFTEYSIYWVRQAPGQRLEIIGRIDPKNGRTYYVDKFKNRATLTADTSASTAYMELSSLRSEDTAVYFCTRIYGFYFDFWGQGTLVTVSS VL: DIQLTQSPSFLSASVGDRVTITCKGSQNVNKYLVWYQQKPGKAPKLLIYNTDNLQSGVPSRFSGSGSGTEYTLTISSLQPEDFATYFCYQYNNGFTFGQGTKVEIK | 240 pM | 0.000504 s⁻¹ | 2.06e+06 M⁻¹ s⁻¹ | 360 pM | 0.000179 s⁻¹ | 493000 M⁻¹ s⁻¹
8 | h7E7.L3H1 (antibody, V domains shown, VL: Y71F against h7E7.L1H1; FR/HVR pieces) VH: EVQLVQSGAEVKKPGASVKVSCKASGYTFTEYSIYWVRQAPGQRLEIIGRIDPKNGRTYYVDKFKNRATLTADTSASTAYMELSSLRSEDTAVYFCTRIYGFYFDFWGQGTLVTVSS VL: DIQLTQSPSFLSASVGDRVTITCKGSQNVNKYLVWYQQKPGKAPKLLIYNTDNLQSGIPSRFSGSGSGTEFTLTISSLQPEDFATYFCYQYNNGFTFGQGTKVEIK | 240 pM | 0.000218 s⁻¹ | 920000 M⁻¹ s⁻¹ | 950 pM | 0.00122 s⁻¹ | 1.28e+06 M⁻¹ s⁻¹

More lines, in order of falling Kd (human TIGIT protein), values ahead:

Row | Kd (human TIGIT protein) | koff (human TIGIT protein) | kon (human TIGIT protein) | Kd [1] | koff [1] | kon [1] | Binder
9 | 1030 pM | 0.00107 s⁻¹ | 1.04e+06 M⁻¹ s⁻¹ | 2100 pM | 0.000806 s⁻¹ | 382000 M⁻¹ s⁻¹ | h15C8.L1H2 (antibody, V domains shown, VH: L37V against h15C8.L1H1; FR/HVR pieces) VH: EVQLVQSGAEVKKPGASVKVSCKASGYTFTEHSIYWVRQAPGQRLEIIGRIDPKNGRTYFVDKFKNRATLTTDTSASTAYMELSSLRSEDTAVYFCARIDGFYFDFWGQGTLVTVSS VL: DIQLTQSPSFLSASVGDRVTITCKGSQNVNKYLVWYQQKPGKAPKLLIYSTDNLQSGIPSRFSGSGSGTEYTLTISSLQPEDFATYFCYQYNNGFTFGQGTKVEIK
10 | 550 pM | 0.000756 s⁻¹ | 1.38e+06 M⁻¹ s⁻¹ | 840 pM | 0.000556 s⁻¹ | 663000 M⁻¹ s⁻¹ | h15C8.L1H6 (antibody, V domains shown, VH: L69I (printed L691) against h15C8.L1H1; FR/HVR pieces) VH: EVQLVQSGAEVKKPGASVKVSCKASGYTFTEHSIYWLRQAPGQRLEIIGRIDPKNGRTYFVDKFKNRATITTDTSASTAYMELSSLRSEDTAVYFCARIDGFYFDFWGQGTLVTVSS VL: DIQLTQSPSFLSASVGDRVTITCKGSQNVNKYLVWYQQKPGKAPKLLIYSTDNLQSGIPSRFSGSGSGTEYTLTISSLQPEDFATYFCYQYNNGFTFGQGTKVEIK
11 | 400 pM | 0.00129 s⁻¹ | 3.24e+06 M⁻¹ s⁻¹ | 400 pM | 0.000359 s⁻¹ | 898000 M⁻¹ s⁻¹ | h7E7.L1H5 (antibody, V domains shown, VH: L69I (printed L691) against h7E7.L1H1; FR/HVR pieces) VH: EVQLVQSGAEVKKPGASVKVSCKASGYTFTEYSIYWVRQAPGQRLEIIGRIDPKNGRTYYVDKFKNRATITADTSASTAYMELSSLRSEDTAVYFCTRIYGFYFDFWGQGTLVTVSS VL: DIQLTQSPSFLSASVGDRVTITCKGSQNVNKYLVWYQQKPGKAPKLLIYNTDNLQSGIPSRFSGSGSGTEYTLTISSLQPEDFATYFCYQYNNGFTFGQGTKVEIK
12 | 380 pM | 0.00107 s⁻¹ | 2.82e+06 M⁻¹ s⁻¹ | 420 pM | 0.000381 s⁻¹ | 908000 M⁻¹ s⁻¹ | h7E7.L1H3 (antibody, V domains shown, VH: I48M against h7E7.L1H1; FR/HVR pieces) VH: EVQLVQSGAEVKKPGASVKVSCKASGYTFTEYSIYWVRQAPGQRLEIMGRIDPKNGRTYYVDKFKNRATLTADTSASTAYMELSSLRSEDTAVYFCTRIYGFYFDFWGQGTLVTVSS VL: DIQLTQSPSFLSASVGDRVTITCKGSQNVNKYLVWYQQKPGKAPKLLIYNTDNLQSGIPSRFSGSGSGTEYTLTISSLQPEDFATYFCYQYNNGFTFGQGTKVEIK
13 | 320 pM | 0.00104 s⁻¹ | 3.21e+06 M⁻¹ s⁻¹ | 560 pM | 0.000324 s⁻¹ | 575000 M⁻¹ s⁻¹ | h7E7.L5H1 (antibody, V domains shown, VL: I58V, Y71F, F87Y against h7E7.L1H1; FR/HVR pieces) VH: EVQLVQSGAEVKKPGASVKVSCKASGYTFTEYSIYWVRQAPGQRLEIIGRIDPKNGRTYYVDKFKNRATLTADTSASTAYMELSSLRSEDTAVYFCTRIYGFYFDFWGQGTLVTVSS VL: DIQLTQSPSFLSASVGDRVTITCKGSQNVNKYLVWYQQKPGKAPKLLIYNTDNLQSGVPSRFSGSGSGTEFTLTISSLQPEDFATYYCYQYNNGFTFGQGTKVEIK
14 | 270 pM | 0.000749 s⁻¹ | 2.79e+06 M⁻¹ s⁻¹ | 400 pM | 0.000243 s⁻¹ | 601000 M⁻¹ s⁻¹ | h7E7.L1H4 (antibody, V domains shown, VH: A67V against h7E7.L1H1; FR/HVR pieces) VH: EVQLVQSGAEVKKPGASVKVSCKASGYTFTEYSIYWVRQAPGQRLEIIGRIDPKNGRTYYVDKFKNRVTLTADTSASTAYMELSSLRSEDTAVYFCTRIYGFYFDFWGQGTLVTVSS VL: DIQLTQSPSFLSASVGDRVTITCKGSQNVNKYLVWYQQKPGKAPKLLIYNTDNLQSGIPSRFSGSGSGTEYTLTISSLQPEDFATYFCYQYNNGFTFGQGTKVEIK
15 | 270 pM | 0.000796 s⁻¹ | 2.95e+06 M⁻¹ s⁻¹ | 440 pM | 0.000274 s⁻¹ | 629000 M⁻¹ s⁻¹ | h7E7.L4H1 (antibody, V domains shown, VL: F87Y against h7E7.L1H1; FR/HVR pieces) VH: EVQLVQSGAEVKKPGASVKVSCKASGYTFTEYSIYWVRQAPGQRLEIIGRIDPKNGRTYYVDKFKNRATLTADTSASTAYMELSSLRSEDTAVYFCTRIYGFYFDFWGQGTLVTVSS VL: DIQLTQSPSFLSASVGDRVTITCKGSQNVNKYLVWYQQKPGKAPKLLIYNTDNLQSGIPSRFSGSGSGTEYTLTISSLQPEDFATYYCYQYNNGFTFGQGTKVEIK
